According to paper PMC5599508:

Experiments:
[1] = biological target: free alpha/beta-tubulin dimers from porcine brain (pig (purified from porcine brain)) (UniProt P02550)
[2] = biological target: T15 peptide derived from the human α-tubulin αK40 loop (human)
[3] = biological target: T9 peptide derived from the human α-tubulin αK40 loop (human)

Sequence of UniProt P02550 (P02550 whole entry, chain 1 of 2): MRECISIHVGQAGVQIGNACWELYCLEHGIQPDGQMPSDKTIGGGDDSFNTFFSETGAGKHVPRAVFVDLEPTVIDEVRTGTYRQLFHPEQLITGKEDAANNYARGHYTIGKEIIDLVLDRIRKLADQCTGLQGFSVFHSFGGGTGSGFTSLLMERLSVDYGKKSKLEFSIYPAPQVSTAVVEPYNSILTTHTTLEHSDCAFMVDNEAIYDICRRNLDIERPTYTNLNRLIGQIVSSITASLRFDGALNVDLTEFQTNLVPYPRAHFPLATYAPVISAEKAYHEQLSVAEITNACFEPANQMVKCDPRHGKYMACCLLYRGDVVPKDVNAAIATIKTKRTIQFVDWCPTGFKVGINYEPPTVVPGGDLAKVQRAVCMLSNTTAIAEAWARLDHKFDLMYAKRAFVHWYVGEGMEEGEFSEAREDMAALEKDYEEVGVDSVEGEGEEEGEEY
Sequence of UniProt P02550 (P02554 whole entry, chain 2 of 2, further chain): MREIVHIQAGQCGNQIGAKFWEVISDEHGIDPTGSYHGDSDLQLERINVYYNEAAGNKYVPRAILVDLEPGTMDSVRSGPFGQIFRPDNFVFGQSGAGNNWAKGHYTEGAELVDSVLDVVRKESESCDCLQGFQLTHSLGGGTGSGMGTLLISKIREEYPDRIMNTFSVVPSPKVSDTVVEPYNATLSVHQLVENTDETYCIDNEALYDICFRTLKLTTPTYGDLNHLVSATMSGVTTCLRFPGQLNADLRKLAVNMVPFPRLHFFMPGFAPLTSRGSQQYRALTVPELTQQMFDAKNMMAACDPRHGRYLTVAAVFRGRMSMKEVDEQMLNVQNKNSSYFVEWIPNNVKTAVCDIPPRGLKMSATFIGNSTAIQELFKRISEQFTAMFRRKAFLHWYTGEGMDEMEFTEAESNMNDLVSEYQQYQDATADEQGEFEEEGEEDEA

With “untagged full-length human histone deacetylase 6 (from UniProt Q9UBN7-1 1-1215) (enzyme)” the KM of the deacetylation of free tubulin dimers by HDAC6 (steady-state kinetics, Western blot quantification) [1] was 0.23 µM, the KM of the deacetylation of the acetylated αK40-derived peptide by HDAC6 (HPLC-based assay) [2] was 328 µM and the KM of the deacetylation of the acetylated αK40-derived peptide by HDAC6 (HPLC-based assay) [3] was 88 µM.
